# Laboratory results reported in PMC7549369.
# How the values were obtained:
# [1] = target: SipL-3×FLAG (Clostridioides difficile) (UniProt Q181G7); experiment: co-IP; SipL-3×FLAG immunoprecipitated with anti-FLAG magnetic beads from cleared lysates of sporulating C. difficile (22 h in the legend, 24 h in the methods), eluted with FLAG peptide; untagged SpoIVA detected by Western blot; SpoIVA/SipL ratio in the elution set to 1 for WT
# [2] = target: SipL (bacterial two-hybrid fusion from pKNT25-sipL) (Clostridioides difficile) (UniProt Q181G7); experiment: two-hybrid; bacterial adenylate cyclase two-hybrid (BACTH) in E. coli BTH101; pKNT25-sipL with pUT18C-spoIVA variants; plates with 0.5 mM IPTG, 40 h at 30°C; β-galactosidase activity in Miller units
substance,measurement,setting,value
"SpoIVA K35E, untagged, in sporulating C. difficile (from UniProt Q182W3 1-491) (natural protein)",fold less coimmunoprecipitated with SipL-3×FLAG relative to wild-type SpoIVA,[1],10 fold
"SpoIVA T75A (bacterial two-hybrid fusion, pUT18C) (from UniProt Q182W3 1-491) (natural protein)",fold increase of binding to SipL relative to WT SpoIVA (β-galactosidase activity),[2],2 fold
"SpoIVA K35E (bacterial two-hybrid fusion, pUT18C) (from UniProt Q182W3 1-491) (natural protein)",fold reduction of binding to SipL relative to wild-type SpoIVA (β-galactosidase activity),[2],100 fold
"SpoIVA K35A (bacterial two-hybrid fusion, pUT18C) (from UniProt Q182W3 1-491) (natural protein)",fold reduction of binding to SipL relative to wild-type SpoIVA (β-galactosidase activity),[2],3 fold
"SpoIVA D102A, untagged, in sporulating C. difficile (from UniProt Q182W3 1-491) (natural protein)",fold more coimmunoprecipitated with SipL-3×FLAG relative to wild-type SpoIVA,[1],1.8 fold
"SpoIVA K35A, untagged, in sporulating C. difficile (from UniProt Q182W3 1-491) (natural protein)",fold less coimmunoprecipitated with SipL-3×FLAG relative to wild-type SpoIVA,[1],3 fold
"SpoIVA T75A, untagged, in sporulating C. difficile (from UniProt Q182W3 1-491) (natural protein)",fold more coimmunoprecipitated with SipL-3×FLAG relative to wild-type SpoIVA,[1],1.5 fold
